Test results taken from the supplement of paper PMC12764529.
± gives the half width of the 95% confidence interval.

What was measured:
[1] = folding stability dG unfold (combined trypsin and chymotrypsin); higher = more stable
How it was run: (§1)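 Only designs with AlphaFold2 dimer inter-PAE above 15 were retained; each was a mini-protein under 80 residues with no cysteine, in a PA-tagged cDNA display construct. After digestion with trypsin and chymotrypsin and sequencing, K50 was inferred by Bayesian fitting of counts, and unfolding free energy was derived per protease or combined against a sequence-predicted unfolded-state K50 and a shared folded-state K50.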

[2] = folding stability dG unfold from chymotrypsin proteolysis; higher = more stable
How it was run: as §1

[3] = folding stability dG unfold from trypsin proteolysis; higher = more stable
How it was run: as §1

| Sequence | folding stability dG unfold [1] | folding stability dG unfold [2] | folding stability dG unfold [3] |
| --- | --- | --- | --- |
| SAGGMTLEELKEALKKLPPNVKEVKITVVEKNGKLVVVVEVNGKKLVIEFDSEEERKLAEELVKELLSSAGG [r13_287_TrROS_Hall] | 3.45 ± 0.24 kcal/mol | 3.13 ± 0.16 kcal/mol | 3.75 ± 0.32 kcal/mol |
| SAGGMTLEITFPPNVKKVRVEFDEETNEVKVEVEEVDGELVIRVEVPPGQELSEEELERLKKLLEELSAGGS [r16_359_TrROS_Hall] | 1.65 ± 0.083 kcal/mol | 1.79 ± 0.072 kcal/mol | 1.34 ± 0.037 kcal/mol |
| SAGGMTPEEKEEIAKKFAEELLKKLKEGDPNVKVETEVDPEKGVVKIKVINLNTKKPKTIEIPFSELASAGG [r13_354_TrMRF] | 1.77 ± 0.1 kcal/mol | 1.83 ± 0.034 kcal/mol | 1.76 ± 0.052 kcal/mol |
| SAGGMTPSVLSNLSEEERKEAVRDFIIEFIKKAFPNVPEDFSVEEVPVLVYDLKTGKLFEVTVHLEGKSAGG [r13_555_TrMRF] | 1.73 ± 0.15 kcal/mol | 2.16 ± 0.1 kcal/mol | 1.19 ± 0.083 kcal/mol |
| SAGGMTPVPVKLLSEESSSVSTLPNGETVTTTPSLAYSPLGFYVLTTTTTYPATPVTTTTSTVVPLSVSAGG [r19_320_JUSTAS] | 0.223 ± 0.16 kcal/mol | -0.151 ± 0.22 kcal/mol | 0.458 ± 0.041 kcal/mol |
| SAGGMVDVTITFTKPDGTPETRPIPASSLPLEELVARIRALREAGVEAEVELPPSLPEEVREALARLLSAGG [r13_251_JUSTAS] | 1.96 ± 0.053 kcal/mol | 2.09 ± 0.071 kcal/mol | 1.78 ± 0.039 kcal/mol |
| SAGGMVEIELVPMSEEELKKLREELPENEILIVVKEDGLVLIVRVEKSEEEAEKLAEELRKLLEELPSAGGS [r16_311_TrROS_Hall] | 1.69 ± 0.23 kcal/mol | 0.935 ± 0.14 kcal/mol | 2.05 ± 0.17 kcal/mol |
| SAGGMVEREFTLDGTRITITYVPSEGVILATFPDRTVTVPVPESLKDKSPEEVIELAKEFAKEYLESSAGGS [r16_215_JUSTAS] | 3.43 ± 0.058 kcal/mol | 3.08 ± 0.041 kcal/mol | 4.14 ± 0.16 kcal/mol |
| SAGGMVFKTKDGYLVRIEVFNKETGEKTEILVPEENIEELLKALESKPGVTEVKVEIYKLKDGKPEKLSAGG [r13_914_TrROS_Hall] | 1.21 ± 0.095 kcal/mol | 1.38 ± 0.09 kcal/mol | 0.862 ± 0.026 kcal/mol |
| SAGGMVFTITVRNPDGTVVELPFDVSDVTITPKNGDLYITVAGGKVLTLKTDEVLDIDPAAIAAANAASAGG [r13_925_JUSTAS] | 1.13 ± 0.16 kcal/mol | 1.26 ± 0.14 kcal/mol | 0.901 ± 0.052 kcal/mol |
| SAGGMVIEKDGDYEYVLLLVDSPEGFPVEVAKELLKKEFGLKEIKVLSAKPLPNGIRLVLVKNKFEKSAGGS [r16_234_TrMRF] | 1.3 ± 0.052 kcal/mol | 1.57 ± 0.062 kcal/mol | 0.875 ± 0.023 kcal/mol |
| SAGGMVIVVKTPGGATSITLGNLTITQDPSTGVAVAEATPEQVEALKKDPALKDIESIEILPEEELKSAGGS [r8_493_JUSTAS] | 0.458 ± 0.14 kcal/mol | 0.648 ± 0.056 kcal/mol | 0.307 ± 0.024 kcal/mol |
| SAGGMVKLFTWPPGQPEEFAEKLRKLPDVVEVTIEEVDGALRIRIKLKGKDVEVTTDPAGRWSVTVVGSAGG [r13_907_JUSTAS] | 2.28 ± 0.048 kcal/mol | 2.35 ± 0.028 kcal/mol | 2.15 ± 0.034 kcal/mol |
| SAGGMVKTITKPMPLEELEKVYEEAKEAIEAGYEVIFTYPLPDGTTITIKTDYETKKIVEIKTSKPVSSAGG [r13_873_JUSTAS] | 0.687 ± 0.28 kcal/mol | 1.09 ± 0.059 kcal/mol | -0.345 ± 0.67 kcal/mol |
| SAGGMVLEVEFTGPLSEVEAFIEELKAKPGVELLSVEIEVKPLPGPPVRYRVKLEVKIYDPENPVLLSAGGS [r8_374_JUSTAS] | 2.74 ± 0.37 kcal/mol | 3.07 ± 0.077 kcal/mol | 2.26 ± 0.22 kcal/mol |
| SAGGMVLVIVSDLKPGELNEIIEKLKKEGLEVKLFLPNGEEIDADPNIEDLPEDVPVVLLVRHPDKSSAGGS [r16_31_TrMRF] | 2.35 ± 0.053 kcal/mol | 2.494 ± 0.017 kcal/mol | 1.87 ± 0.079 kcal/mol |
| SAGGMVLVRIRVDMSPEERKRLEEELRKRVTEVRYLPEDEDVVEVRVSPEALAELPEERITEVELLPSAGGS [r16_328_TrROS_Hall] | -0.0298 ± 0.097 kcal/mol | -0.654 ± 0.32 kcal/mol | 0.217 ± 0.15 kcal/mol |
| SAGGMVRITRDEDGILRVELFVEGTPEEAEEEAARLVRLLEELGFEEVRVEREPFGDGVVVTIEAKASAGGS [r8_113_TrMRF] | 2.74 ± 0.076 kcal/mol | 2.86 ± 0.083 kcal/mol | 2.55 ± 0.11 kcal/mol |

| Sequence | folding stability dG unfold [1] | folding stability dG unfold [2] | folding stability dG unfold [3] |
| --- | --- | --- | --- |
| SAGGMVRVTVVPTPGRAGEPVTLVIEHPDGTRTVPLPPDTSPEEARAAAERLAEEEGLDVAEVVFEASAGGS [r16_753_JUSTAS] | 0.376 ± 0.098 kcal/mol | 0.428 ± 0.086 kcal/mol | 0.243 ± 0.07 kcal/mol |
| SAGGMVTIELREVSEEEALKLAEELPPNTLLIPFPFGNLVLPVRVPDDPEVREKVAEEIRKFLEALPSAGGS [r16_311_TrMRF] | 0.67 ± 0.13 kcal/mol | 0.0455 ± 0.19 kcal/mol | 1.13 ± 0.023 kcal/mol |
| SAGGMVTITVSIEEGKGYAVITITIDDETLTIKIPIPNMTEEDIKAKAEEIAKELAEKYGIEEIKLESAGGS [r16_249_JUSTAS] | 3.34 ± 0.32 kcal/mol | 3.37 ± 0.13 kcal/mol | 3.08 ± 0.16 kcal/mol |
| SAGGMVTLTLPSPDGSTLTVTVEKDPNADYYRATVTTHHPDGTVTVTESVIHPDGTTTTLATTTLPASAGGS [r16_213_JUSTAS] | 2.23 ± 0.12 kcal/mol | 2.22 ± 0.04 kcal/mol | 2.11 ± 0.08 kcal/mol |
| SAGGMVTLTYTDLVEEDPEVKAAKARELAEELREKGYTVTDATFDPEAGTLTITVSADDATLEEIAASAGGS [r8_344_TrMRF] | 1.27 ± 0.099 kcal/mol | 1.1 ± 0.065 kcal/mol | 1.26 ± 0.071 kcal/mol |
| SAGGMVTVTDPNGVKHEYKLKVKITFEKPDGKPVTVEIEFDNVTVEDIVKIAKEIESKGYKLVSIEISSAGG [r13_227_TrMRF] | 4.74 ± 0.22 kcal/mol | 4.91 ± 0.15 kcal/mol | 3.73 ± 0.34 kcal/mol |
| SAGGMVYRVKVKITFPDGKTYYIPFPNFKSFEEILNVLKKLGFENLENIPIEVIEIEPIPEVPEELLKSAGG [r13_493_TrMRF] | 2.74 ± 0.16 kcal/mol | 3.07 ± 0.11 kcal/mol | 1.53 ± 0.066 kcal/mol |
| SAGGMYEIVDLLSVEPDPETGALTRTFLLRDPDSDRFLVAEVRIDPENPDRVEIRLYDEDGNLIAEFPSAGG [r13_658_TrMRF] | 3.93 ± 0.045 kcal/mol | 4.148 ± 0.034 kcal/mol | 3.36 ± 0.083 kcal/mol |
| SAGGMYILELTFTTPTSTTPRTVEVPPGNYEEAAKALREELAAEAGAADLEVTFTVYKVAPDGTLVEESAGG [r13_877_JUSTAS] | 2 ± 0.19 kcal/mol | 2.51 ± 0.097 kcal/mol | 1.16 ± 0.049 kcal/mol |
| SAGGMYKARIEVKNPEEVKKKIKELGLEFEIETRPDGSVDIYFPPEYVDKLIKAFPGEKIEIEPIPDESAGG [r13_261_TrMRF] | 3.29 ± 0.14 kcal/mol | 3.38 ± 0.11 kcal/mol | 2.94 ± 0.15 kcal/mol |
| SAGGMYKVKIYFEDTKEEIEIEASAEEVLEAIKNGDLDALKKLFPGAKIVKIEVEKVEPEPEEEEEEESAGG [r13_629_TrROS_Hall] | 3.44 ± 0.29 kcal/mol | 3.48 ± 0.23 kcal/mol | 3.33 ± 0.27 kcal/mol |
| SAGGMYLVKIKVKIDSPTSEKERDLYILAEPDTDVEEIVKKIPGAKNIEIEVEIIPPSENPEIASNPLSAGG [r19_339_JUSTAS] | 0.684 ± 0.25 kcal/mol | 0.7 ± 0.15 kcal/mol | 0.645 ± 0.12 kcal/mol |
| SAGGMYVEVVIDNPDPDISPEELAEEVARELAPDPFEIKPVKIEPELIGGIPKVTILFEVDDPEAVEESAGG [r13_979_TrMRF] | 0.763 ± 0.056 kcal/mol | 0.958 ± 0.019 kcal/mol | 0.238 ± 0.049 kcal/mol |
| SAGGNAKEIASYLADWFQERFPPNMKVKVSVTVTPDGIVVRIRMPGGWQFEITIKDGKLQEIEWTPYSAGGS [r8_287_TrROS] | 2.79 ± 0.067 kcal/mol | 2.874 ± 0.026 kcal/mol | 2.72 ± 0.07 kcal/mol |
| SAGGNGRKKVKIDISIMIPIPPNDMPPEQRMKLAKELAERIARSLARKEGADPDKIDEVKVRFHIFPWSAGG [r13_5_TrROS] | 2.44 ± 0.072 kcal/mol | 2.65 ± 0.067 kcal/mol | 2.03 ± 0.027 kcal/mol |
| SAGGNKATLTVSEDNYPVLLLELYAPDGELIATAPVLLDPEKGGLTAADLERLLKEIDVPPDVEVNIASAGG [r13_479_TrMRF] | 1.32 ± 0.091 kcal/mol | 1.36 ± 0.037 kcal/mol | 1.21 ± 0.096 kcal/mol |
| SAGGNKNGKPKPTVPFKIMVMKPKPRRNDNNGQEEPRYDMRPVEIEFPLGEEIDLEEALENPDYIFIMSAGG [r13_753_TrROS] | 0.199 ± 0.15 kcal/mol | 0.276 ± 0.18 kcal/mol | -0.0176 ± 0.14 kcal/mol |
| SAGGNLFIRIKIEHDGGPITHWFPIKDAEQAKDNIKEFFDQQGLPVKIKEIEVFPEEGFIPVEWRVPPSAGG [r13_567_TrROS] | 0.348 ± 0.11 kcal/mol | 0.485 ± 0.12 kcal/mol | 0.101 ± 0.12 kcal/mol |
